B1: Ab_14 (scFv, V domains shown)
VH: QVQLQQSGPGLVKPSQTLSLTCAISGDSVSSNSAAWNWIRQSPARGLEWLGRTYYRSRWYNDYAISMKSRITINPDTSKNQFSLQLESVTPEDTAVYYCAREIRGFDYWGQGTLVTVSS
VL: QSVLTQPPSASGSPGQSVTISCTGTSSDVGAYNFVSWYQHHPGKAPKLIIYDFNKRPSGVPDRFSGSKSGNTASLTVSGLQADDEADYYCSSYAGSNNFDVVFGGGTKLTVL
B2: Ab_16 (scFv, V domains shown)
VH: QVQLVQSGGGVVQPGRSLRLSCAASGFTFSNYGMHWVRQAPGKGLEWVALIWERGSKKDYADSVKGRFTVSRDNSKNTLYLQMNSLRPEDTAVYFCAREGISMTGAEYFQHWGQGTLVTVSS
VL: QSVLTQPPSVSGSPGQRVTMSCTGSSSNIGAGYDVHWYQQVPGAAPRLLIYGTNNRPSGVPDRFSGSKSGTSASLTITGLQAEDEADYYCQSYDNSLTDPYVFGTGTKVTVL
B3: Ab_17 (scFv, V domains shown)
VH: QVQLVQSGGGVVQPGRSLRLSCAASGFTFDDYAMHWVRQVPGKGLEWVSGIDWNSGVIGYADSVKGRFTISRDNVKNSLYLQMNSLRTEDSALYYCAKDIGPGGSGSYYAFDIWGQGTTVTVSS
VL: QSALTQPASVSGSPGQSITISCTGTSSDVGGSKYVSWYQQHPGKAPKVMIYDVTKRPSGVPDRFSGSKSGNTASLTISGLQAEDEADYYCAAWDDSLNGVVFGGGTKLTVL
B4: Ab_18 (scFv, V domains shown)
VH: EVQLVQSGGGVVQPGRSLRVSCAASGFSFSRYGMHWVRQAPGKGLEWVAFIRHDGSKKYYADSVEGRFTISRDNSRNTVSLEMNSLRGEDTAVYYCAKDGRLEAALDDWGQGTLVTVSS
VL: NFMLTQPHSMSGSAGKTVTVSCIRSSGSIANNFVQWYQQRPGSAPTTVIYEDNQRPSGVPDRFSGSIDSSSNSASLTISGLKTEDEADYYCQSYDSSNLVFGGGTRLTVL
B5: Ab_19 (scFv, V domains shown)
VH: EVQLVESGAEVKKPGESLKISCKGSGYSFTSYWIGWVRQMPGKGLEWMGIIYPGDSDTRYSPSFQGQVTISADKSISTAYLQWSSLKASDTAMYYCARRGDLDAFDIWGQGTMVTVSS
VL: QPGLTQPPAASGTPGQRVTVSCSGASANIGSNAVSWFKQFPETAPRLLISGNTHRPSGVPDRVSGSKSGTSASLTISGLQSDDEADYYCAAWDDSLNGYVFGSGTKVTVL
B6: Ab 20 (scFv, V domains shown)
VH: QVQLVQSGGGSVKPGGSLRLSCAASGYRLSDYYMHWVRQAPGKGLEWVANIKQDGSEKYYVDSVKGRFTISRDNAKNSLYLQMNSLRAEDTAVYYCARVRGWSRGYFDYWGQGTLVTVSS
VL: NFMLTQPHSVSESPGKTVTISCTGSSGSIASNYVQWYQQRPGSAPTTVIYEDNQRPSGVPDRFSGSIDSSSNSASLLISGLKTEDEADYYCQSYDSSNHWVFGGGTKLTVL
B7: Ab 21 (scFv, V domains shown)
VH: QVQLVQSGGGLVQPGGSLRLSCATSGFTFDDYAMHWVRQAPGKGLEWVSGISWNSGSIGYVDSVKGRFTISRDNRNNKVYLQMNNLRAEDTAVYYCARDWWGSIDHWGLGTLVTVSS
VL: QSALTQPRSVSGSPGQSVTISCTGTSSDVGGYDYVSWYQQHPGKAPKLIIYDVSKRPSGVPDRFSGSKSGNTASLTVSGLQAEDEADYYCSSYTSSSPVVFGGGTKLTVL
B8: Ab 23 (scFv, V domains shown)
VH: EVQLVQSGAEVKKPGSSVKVSCRSSGGTFSTYGITWVRQAPGQGLEWMGRIIPSLGIPNYAQKFQGRVTITADTSVSTAWMELSSLESDDTAIYYCARENIDLATNDFWGQGTLVTVSS
VL: QSALTQPPSASGSPGQSVTISCTGTSRDIGAYGYVSWYQQVPGKAPKLIIYEVRNRPSGVSSRFSGSKSGNTASLTISGLQAEDEADYYCSSYTSSSTLDVVFGGGTKLTVL

biological target: D614G Spike (SARS-CoV-2, UniProt P0DTC2 16-1213)

Binder	Kd
B1	8.12 pM
B2	8.35 pM
B3	6.8 pM
B4	6.33 pM
B5	10.9 pM
B6	8.64 pM
B7	8 pM
B8	8.82 pM

Reference: US20230374114A1 (Dana-Farber, published 2023)
